Measurements reported in US20100015126A1, “Methods of Binding of Cross-Beta Structures By Chaperones” (priority 2006, published 2010).

Target: T1, BiP-Sepharose (Homo sapiens, UniProt P11021)
T1 construct: The human BiP gene except the signal peptide encoding region was obtained from Geneart (Germany); linker […]; made in house; host or cells: HEK 293E cells, transient transfection, PABC674 vector; secreted into the medium
Assay: BiP-Sepharose extraction of proteins from patient plasma, serum, synovial fluid and mass-spectrometric identification
Assay type: binding
Conditions: Sample B6: eluate of BiP-Sepharose contacted with RA patient IV synovial fluid
Experimental: BiP was coated on CNBr-Sepharose (GE-Healthcare, Amersham Biosciences). Immobilization of BiP was performed essentially as described elsewhere in this application for NHS-Sepharose. CNBr-matrix was dissolved at 200 mg/ml in 1 mM HCl and treated the same as the NHS-matrix, except for an additional 5 minutes activation step in 1 mM HCl on a roller device before washing in this buffer. BiP was diluted in immobilization buffer (50 mM NaCl and 40 mM NaHCO3) to a concentration of 820 μg/ml. A total volume of 2 ml BiP solution (1640 μg BiP) was incubated with 360 mg beads. Negative control matrix was exposed to immobilization buffer, only. After overnight immobilization matrix was blocked with Tris and washed.
Six samples were incubated with the BiP-Sepharose, IgIV-Sepharose and the control-Sepharose: Normal pooled plasma, plasma of a patient I or of a patient II, with AL amyloidosis, serum of a patient III with RA (Rheumatoid Factor (RF) titer 682), control serum and synovial fluid of a patient IV with RA (RF titer 23). All samples were diluted 20× in HBS and applied to 200 μl beads in two volumes of 500 μl. One volume was incubated for 4 h at RT and supernatant was discarded after centrifugation (2 minutes at 1400 rpm). Subsequently, the second volume was applied to the same matrix and incubated overnight on a roller device at 4° C. […] To collect the eluates, the matrices were centrifuged and the two eluates were pooled for each sample.
Protein digests were desalted as described (Rappsilber et al., 2003), vacuum dried and dissolved in 2.5% formic acid.
For analysis of peptide mixtures, an Agilent 1100 HPLC system (Agilent Technologies) connected to a Thermo Finnigan LTQ-MS (Thermo Electron, Bremen, Germany) was used. Protein digests were injected on a trap column (Reprosil C18 RP (Dr Maisch, Germany), 20 mm×100 μm I.D.) at 5 μl/minute. Subsequently, the peptides were transferred with a split-reduced flow rate of 100 nL/minute solvent A (0.1 M acetic acid) on the analytical column (Reprosil C18 RP, 20 cm×50 μm I.D.). […] The column effluent was directly introduced into the ESI source of the mass spectrometer via a butt-connected nano-ESI emitter (New Objectives, Woburn, Mass.). The mass spectrometer was operated in the positive ion mode and parent ions were selected for fragmentation in data-dependent mode.
After mass spectrometric measurements, peak lists were generated using BioWorks software (Thermo Electron, Bremen, Germany). Protein identification was performed using Mascot software (www.matrixscience.com) by searching the IPIhuman database (version 3.24, downloaded from ftp://ftp.ebi.ac.uk/pub/databases/IPI/current) using the following settings: fully tryptic peptides, peptide tolerance 0.8 Da, MS/MS tolerance 0.9 Da, 1 missed cleavage allowed, carbamidomethyl (Cys) and oxidation (Met) as fixed and variable modification, respectively. The Scaffold software package (www.proteomesoftware.com) was used to parse the data and to filter peptides at a confidence level of 95%, allowing only protein identification with at least 2 peptides identified.

T1 sequence (P11021 19-654): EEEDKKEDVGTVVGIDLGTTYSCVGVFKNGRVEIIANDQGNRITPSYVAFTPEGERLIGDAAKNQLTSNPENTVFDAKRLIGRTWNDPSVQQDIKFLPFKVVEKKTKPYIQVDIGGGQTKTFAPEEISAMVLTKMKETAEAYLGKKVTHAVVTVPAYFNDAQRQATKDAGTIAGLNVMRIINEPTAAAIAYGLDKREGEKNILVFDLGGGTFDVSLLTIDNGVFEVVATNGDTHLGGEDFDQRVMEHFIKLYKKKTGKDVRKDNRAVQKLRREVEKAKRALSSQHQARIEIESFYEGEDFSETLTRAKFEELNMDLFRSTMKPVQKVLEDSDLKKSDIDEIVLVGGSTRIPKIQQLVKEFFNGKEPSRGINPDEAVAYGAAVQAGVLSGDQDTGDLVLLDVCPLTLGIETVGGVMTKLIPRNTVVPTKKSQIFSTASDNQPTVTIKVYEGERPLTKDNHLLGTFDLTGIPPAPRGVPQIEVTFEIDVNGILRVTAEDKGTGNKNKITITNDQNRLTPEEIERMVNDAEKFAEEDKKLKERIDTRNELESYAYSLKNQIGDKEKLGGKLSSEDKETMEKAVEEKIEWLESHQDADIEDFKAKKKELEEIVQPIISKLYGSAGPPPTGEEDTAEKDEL

B1: Immunoglobulin heavy constant mu (protein)
chain: GSASAPTLFPLVSCENSPSDTSSVAVGCLAQDFLPDSITFSWKYKNNSDISSTRGFPSVLRGGKYAATSQVLLPSKDVMQGTDEHVVCKVQHPNGNKEKNVPLPVIAELPPKVSVFVPPRDGFFGNPRKSKLICQATGFSPRQIQVSWLREGKQVGSGVTTDQVQAEAKESGPTTYKVTSTLTIKESDWLGQSMFTCRVDHRGLTFQQNASSMCVPDQDTAIRVFAIPPSFASIFLTKSTKLTCLVTDLTTYDSVTISWTRQNGEAVKTHTNISESHPNATFSAVGEASICEDDWNSGERFTCTVTHTDLPSPLKQTISRPKGVALHRPDVYLLPPAREQLNLRESATITCLVTGFSPADVFVQWMQRGQPLSPEKYVTSAPMPEPQAPGRYFAHSILTVSEEEWNTGETYTCVVAHEALPNRVTERTVDKSTGKPTLYNVSLVMSDTAGTCY
  # of peptides in sample A#: 1
